The values below come from PMC2553580 (Nucleic Acids Research, 2008).

This data set deals with the molecule itself. The data set can be described thus: native gel or EMSA. A general note: A gel shift assay detects complexes by their altered migration in electrophoresis.

One may read the stoichiometry N as the number of molecules, sites or subunits per partner or assembly.

B1: long isoform of Sox5 (natural protein)
chain: not shown
On to B1, for which the “stoichiometry N” value is 2.
